In paper PMC6221358, “The Zn2Cys6-type transcription factor LeuB cross-links regulation of leucine biosynthesis and iron acquisition in Aspergillus fumigatus”:

B1: hapX 16 bp SPR duplex (dsDNA)
DNA 1: CCGCCGAAATCGGGAA
DNA 2: TTCCCGATTTCGGCGG
B2: leuA 16 bp SPR duplex (dsDNA)
DNA 1: GGACCGATGTCGGATC
DNA 2: GATCCGACATCGGTCC

Target: T1, LeuB DBD (LeuBM50-125YS, SPR) (Aspergillus fumigatus, UniProt Q4WI12 224-299)
T1 sequence: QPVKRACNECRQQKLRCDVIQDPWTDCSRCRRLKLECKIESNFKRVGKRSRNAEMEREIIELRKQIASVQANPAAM
Assay: SPR; 10 uM ZnCl2; 30 ug/ml poly(dAdT); SPR: 10 mM HEPES pH 7.4, 150 mM NaCl, 0.005% P20, 5 mM beta-mercaptoethanol, 10 uM ZnCl2, 25 C, LeuB DBD 6.25-400 nM with 30 ug/ml poly(dAdT); EMSA: as previously described (not given), 1 ug salmon sperm DNA as nonspecific or 100-fold cold probe as competitor
Details: protein: recombinant; tags: none stated; chain copies: 2; label: biotin; 16 bp duplex

Row | Binder | Kd [nM]
1 | B1 | 160
2 | B2 | 95.2
